Test results: patent US7598354 (NATIONAL RESEARCH COUNCIL OF CANADA, dated 2009)

biological target: T1, soybean agglutinin (SBA)-alkaline phosphatase conjugate (soybean, UniProt P05046 33-285, conjugated to alkaline phosphatase (EY Laboratories)); experiment: Western blot of 2D gel probed with SBA-alkaline phosphatase conjugate
T1 construct: Lectin; Alkaline phosphatase part not described; also called GalNAc-specific lectin; SBA lectin
T1 sequence (P05046 33-285 limits assumed): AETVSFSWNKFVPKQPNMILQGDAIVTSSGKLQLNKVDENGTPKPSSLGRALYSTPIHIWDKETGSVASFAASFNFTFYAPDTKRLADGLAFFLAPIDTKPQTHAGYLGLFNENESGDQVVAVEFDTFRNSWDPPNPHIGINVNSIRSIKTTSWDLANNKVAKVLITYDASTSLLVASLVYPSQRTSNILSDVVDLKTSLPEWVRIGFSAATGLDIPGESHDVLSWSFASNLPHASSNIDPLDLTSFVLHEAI

Binder	binding result
Cj0169, superoxide dismutase (Fe; SodB) (enzyme) MFELRKLPYDTNAFGDFLSAETFSYHHGKHHNTYVTNLNNLIKDTEFAGKDLVSIIKTSNGGVFNNAAQVYNHDFYFDCIKPSTGCGCGGSCQSIDANLQAALEKEFGSLENFKAEFIKGATGVFGSGWFWLVYNTKNQKLEFVGTSNAATPITEDKVPLLVVDVWEHAYYVDHRNARPAYLEKFYAHINWEFVAKAYEWALKEGMGSVSFYANELHPVK	no binding (tested: 10 µg/mL)
Cj0638c, inorganic pyrophosphatase (Ppa) (enzyme) MNLSKIKIGDIPNKINAVIEIPYGSNIKYEIDKDSGAIMVDRVMASAIFYPANYGFIANTLADDGDPVDILVLNEYPIQAGAVIPCRLIGVLIMEDESGMDEKLLAVPNSKIDARYDNIKTYTDLPQATLNKIKNFFETYKILEPNKWVKVQDFKDEKAAIEILEKAIKNYK	no binding (tested: 10 µg/mL)
Cj0332c, nucleoside diphosphate kinase (Ndk) (enzyme) MEKTLSIIKPDAVKKGVIGKILDRFESNGLRIAAMKKVQLSKEQAENFYAVHKERPFFKDLVEFMISGPVVVSILEGEGAVLKNRDLMGATNPKEAKAGTIRADFAESIDANAVHGSDSLENAKIEIEFFFKPNEIC	no binding (tested: 10 µg/mL)
